B1: Gatipotuzumab-AF (antibody, IgG1, V domains shown)
VH: EVQLVESGGGLVQPGGSMRLSCVASGFPFSNYWMNWVRQAPGKGLEWVGEIRLKSNNYTTHYAESVKGRFTISRDDSKNSLYLQMNSLKTEDTAVYYCTRHYYFDYWGQGTLVTVSS
VL: DIVMTQSPLSNPVTPGEPASISCRSSKSLLHSNGITYFFWYLQKPGQSPQLLIYQMSNLASGVPDRFSGSGSGTDFTLRISRVEAEDVGVYYCAQNLELPPTFGQGTKVEIK
modifications: afucosylated Fc glycan (-AF)
B2: Clivatuzumab-AF (antibody, IgG1, V domains shown)
VH: QVQLQQSGAEVKKPGASVKVSCEASGYTFPSYVLHWVKQAPGQGLEWIGYINPYNDGTQYNEKFKGKATLTRDTSINTAYMELSRLRSDDTAVYYCARGFGGSYGFAYWGQGTLVTVSS
VL: DIQLTQSPSSLSASVGDRVTMTCSASSSVSSSYLYWYQQKPGKAPKLWIYSTSNLASGVPARFSGSGSGTDFTLTISSLQPEDSASYFCHQWNRYPYTFGGGTRLEIK
modifications: afucosylated Fc glycan (-AF)
B3: HuVH-HMFG1-AF (antibody, IgG1, V domains shown)
VH: QVQLVQSGAEVKKPGASVKVSCKASGYTFSAYWIEWVRQAPGKGLEWVGEILPGSNNSRYNEKFKGRVTVTRDTSTNTAYMELSSLRSEDTAVYYCARSYDFAWFAYWGQGTLVTVSS
VL: DIQMTQSPSSLSASVGDRVTITCKSSQSLLYSSNQKIYLAWYQQKPGKAPKLLIYWASTRESGVPSRFSGSGSGTDFTFTISSLQPEDIATYYCQQYYRYPRTFGQGTKVEIK
modifications: afucosylated Fc glycan (-AF)
B4: MUC1 3D1-hFc-AF (antibody, IgG1, V domains shown)
VH: EVQLVQSGAEVKKPGESLKISCKGSGYAFSNFWMNWVRQMPGKGLEWMGQIYPGDGDTNYNGKFKGQVTISADKSISTAYLQWSSLKASDTAMYYCARSYYRSAWFAYWGQGTLVTVSL
VL: EIVLTQSPDFQSVTPKEKVTITCRASQSIGTSIHWYQQKPDQSPKLLIKYASESISGVPSRFSGSGSGTDFTLTINSLEAEDAATYYCQQSNNWPLTFGQGTKVEIK
modifications: afucosylated Fc glycan (-AF)
B5: huBG219P-Bz0 (antibody, IgG1, V domains shown)
VH: EVQLLESGGGLVQPGGSLRLSCAASGFTFNDYIMSWVRQAPGKGLEWVATVSSGGDNTYYPDSVKGRFTISRDNSKNTLYLQMNSLRAEDTAVYYCTRYGGLGAMDYWGQGTLVTVSS
VL: DIQMTQSPSSLSASVGERVTITCRASGNIHNYLTWYQQKPGKSPKLLVYNAKTLADGVPSRFSGSGSGPDYTLTISSLQPEDFATYYCQHFWSVPYTFGQGTKLEIK
notes: Humanized

Columns and labels:
[1] = target: T1, Human MUC1 (full length), on cells (human, UniProt P15941 24-1255); assay: cell-based or functional assay
T1 sequence (P15941 24-1255 limits assumed): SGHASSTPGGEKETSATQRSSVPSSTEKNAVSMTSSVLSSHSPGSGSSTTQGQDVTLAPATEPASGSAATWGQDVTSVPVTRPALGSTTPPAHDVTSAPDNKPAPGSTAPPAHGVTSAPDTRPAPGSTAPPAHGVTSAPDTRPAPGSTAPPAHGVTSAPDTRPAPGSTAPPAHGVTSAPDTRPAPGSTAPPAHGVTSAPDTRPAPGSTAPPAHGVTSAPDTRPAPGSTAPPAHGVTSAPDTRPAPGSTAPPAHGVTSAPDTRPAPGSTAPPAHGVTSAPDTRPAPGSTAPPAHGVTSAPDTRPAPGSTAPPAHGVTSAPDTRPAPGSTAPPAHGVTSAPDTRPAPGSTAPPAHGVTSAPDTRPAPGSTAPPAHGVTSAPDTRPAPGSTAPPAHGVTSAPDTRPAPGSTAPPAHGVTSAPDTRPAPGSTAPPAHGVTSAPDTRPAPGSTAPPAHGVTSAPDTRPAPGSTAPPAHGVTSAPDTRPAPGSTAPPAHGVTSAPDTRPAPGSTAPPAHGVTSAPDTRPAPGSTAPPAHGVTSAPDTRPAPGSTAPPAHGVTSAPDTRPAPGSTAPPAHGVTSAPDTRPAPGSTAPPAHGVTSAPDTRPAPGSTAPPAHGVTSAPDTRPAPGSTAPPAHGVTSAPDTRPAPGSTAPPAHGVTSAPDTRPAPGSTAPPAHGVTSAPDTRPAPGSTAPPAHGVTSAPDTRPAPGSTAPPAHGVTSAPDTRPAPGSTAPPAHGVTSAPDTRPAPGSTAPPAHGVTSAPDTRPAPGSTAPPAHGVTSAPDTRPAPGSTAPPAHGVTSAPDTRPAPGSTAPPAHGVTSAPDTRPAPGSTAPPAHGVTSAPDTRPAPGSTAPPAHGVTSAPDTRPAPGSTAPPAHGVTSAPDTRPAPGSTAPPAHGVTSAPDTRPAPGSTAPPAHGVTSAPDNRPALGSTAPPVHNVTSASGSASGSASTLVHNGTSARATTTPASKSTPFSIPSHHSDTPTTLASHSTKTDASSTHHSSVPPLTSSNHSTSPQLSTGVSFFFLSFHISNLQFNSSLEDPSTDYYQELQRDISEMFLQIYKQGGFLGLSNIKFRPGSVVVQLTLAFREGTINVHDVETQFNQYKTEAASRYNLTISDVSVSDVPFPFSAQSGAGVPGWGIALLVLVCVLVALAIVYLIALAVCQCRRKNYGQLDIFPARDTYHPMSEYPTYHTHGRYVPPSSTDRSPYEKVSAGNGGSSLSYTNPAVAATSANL

[2] = target: T1, Human MUC1 (full length), on cells; assay: flow cytometry on live ZR-75 cells (native MUC1)

Binder	Cell lysis activity EC50, T-47D/nanoluc in human whole blood [1] [nM]	Cell lysis activity Emax, T-47D/nanoluc in human whole blood [1] [%]	EC50 [2] [nM]
B1	2.46	10.2	–
B2	–	2.31	–
B3	–	3.59	–
B4	8.85	10.6	–
B5	–	–	20.9

Source: patent publication US20250075002A1 (BEIGENE SWITZERLAND, published 2025)
